Experiments:
Format in all cases: biochemical
[1] = LC-MS assay of GH3 conjugation of 2,4-D with Asp or Glu; settings: LC-MS; for Detected auxin conjugates: 2,4-D-Asp: 2,4-D with Asp; for Detected auxin conjugates: 2,4-D-Glu: 2,4-D with Glu
In short: (§1)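 N-terminal His-tagged GH3 homologs, expressed in E. coli C41(DE3) and Ni-NTA purified, at 44 to 164 μg/mL incubated 3 h at 30 °C in 20 mM Tris-HCl pH 8.0, 5 mM MgCl2, 1 mM DTT, 5 mM ATP, 5 mM auxin (IAA, 2,4-D or dicamba) and 5 mM Asp or Glu. Conjugates quantified by LC-MS against standards after MeOH precipitation; kinetics from Michaelis-Menten fits of initial velocities.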

[2] = LC-MS assay of GH3 conjugation of dicamba with Asp or Glu; settings: LC-MS; for Detected auxin conjugates: Dicamba-Asp: dicamba with Asp; for Detected auxin conjugates: Dicamba-Glu: dicamba with Glu
In short: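 Dicamba–amino acid (Asp or Glu) conjugates formed by purified his-tagged GH3 enzymes were detected by LC-MS on an AB Sciex 4000 QTrap with Shimadzu Nexera UHPLC and a Phenomenex Luna 3 μm Phenyl-Hexyl column, after 20× dilution of the supernatant in water. Standards were used to quantify conjugates. Protein concentration was determined by Bradford assay.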

[3] = LC-MS assay of GH3 conjugation of IAA with Asp or Glu; settings: LC-MS; for Detected auxin conjugates: IAA-Asp: IAA with Asp; for Detected auxin conjugates: IAA-Glu: IAA with Glu
In short: as §1

Row | Molecule | Detected auxin conjugates: 2,4-D-Asp [1] | Detected auxin conjugates: 2,4-D-Glu [1] | Detected auxin conjugates: Dicamba-Asp [2] | Detected auxin conjugates: Dicamba-Glu [2] | Detected auxin conjugates: IAA-Asp [3] | Detected auxin conjugates: IAA-Glu [3]
1 | Br040953: GH3 protein, Bra040953 (protein, listed as Brassica rapa) MMIPSYDPNDTEAGLQLLEDLTTNADAIQQQVLHQILSQNSETEYLRSFLDGESCNIQENFKNKAPVVNYEDIKPFIQRISDGDSSDILSAQPITELLTSSGTSGGKPKFMPSTAEELDRKTFFYNMLVPVMNKFVNGLDEGKGMYLLFIKPEIKTPSGLQARPVLTSYYKSEQFKNRPFNKYNVITSPNDAILCEDSQQSMYCQLLCGLVQRSDVLRLGAIFASAFLRAVKFLENHFTELCADIRTGTVASWITDSGCRDSVLSILNGPNQELADEIEALFNAKSREGILKRIWPKTKYIEVIVTGSMAQYIPTLEFYSGGLPLVSVMYASSECFFGLNINPLCKPSDVSYTLLPNMAYFEFLPVDDKSHEETHLESRSTDDVSLTDKDRIVDLVSVEIGRYYELIITTFAGLYRYRVGDILKVTGFHNKAPQFSFVERRNVVLSIDTDKTSEEDLMKAVTQAKLNHLQGLFLLTEYTSYADTSSIPGHYVLFWELKPRYDNDPPKLDKKMMEDCCSEVEDCLDYVYRRCRNKDRSIGALEIRVVSLGTFDALMDFSISQGSSVNQYKTPRCVKSGGALQILDSRVIGRFFTKRVPQWEPLGLDS | Yes | Yes | No | No | Yes | Yes
2 | Br016359: GH3 protein, Bra016359 (protein, listed as Brassica rapa) MSVISVLTEKANDKLKILEDLTSNVKQIQDNVLEEILTLNTNTEYLQRFFHGKFDKEIFKKNVPVGTYEDVKPYIQRVANGEPSNVISTRPITGFLLSSGTSGGAQKIMPWNEKFLDYLTFMYDLRMHVITNYVKGLEKGKAMMFYFTKLESTTASGLPARTASSSYLKSSYFKNRPCNWYYTYTSPDEVILCPDNKQSLYCHLLCGLVQRNEVTRMGSIFASVMVRAIKFLEDSWEELCSNIRSGQLSEWITDPGCRDSVSMVLGGPHPEVANTVEKICNEKCWKGILKRLWPRTKYIETIVTGSMAQYVPTLNYYCNDMLPLVSTIYASSETTFGLNLNPLCKPEDVSYTIMPNVSYFEFIPLDGDENDVVDLADLKLGCSYELVVTNFSGLYRIRVGDILLVTGFYNKAPQLRFIRRDNVVLSIDMDKTNEEDLFNAVNRAKLIINSSGLMLTDFTSHGDISTIPGHYVIYWEVEDKREDKTKHICMELKGDAFSECCLVMEDSFDNVYKRCRFREKTVGPLEIKVVLHGTFDSLMDFFISQGASIGQYKTPRCIGSGKPLELLEKNVVATFFSTGDCSFKN | Yes | No | No | No | Yes | No
3 | Br040812: GH3 protein, Bra040812 (protein, listed as Brassica rapa) MSSIVELSSLEELTLNAEQIQDDLLEKILRLNSNTEYLRRFLHGSNDKELFKKNVPLANYEDVKPYIERVANGEPSDLISGGPVTRFFRSSGTSGGKQKIFPVNDEAIEQLGYVLALRSLVMSKHFSDNGVEQGKTMEFHYTKPESTTPSGLPVAAAFTSFFKSDYFKNRPSKSQYTSPDQVILCPDNKQSLYCHLLCGLSQRDEVVRFGATFAHALVRAIDFLESNWKELCGNIRLGHVSEWITDLGCRSSVSAIIGGPNPELADLIEQECSHKSWEGIVTRLWPKAKRIECVLTGQMAQYIPILDFYCNKLPLVSTVYGSSESIFGFNVDPLCKPQDVSYTFVPNTSYFEFLPVDHEGDMTSIVDLVNVKLGCYYEPVVTTCFGLNRYLIGDILEVTGFYNNTPQFRFVRRKNMVLSVETETTTEDDILKALARATFVLESSNLMLMDFTSSADISTFPGHYVFYWELKGKEVNDVLVLDEKTLMGCCYVLEESFGSTYRLKRRTGLIGALEIRVVEQGTFNSLTDYFISRGSSRAQYKTPLCINSSEASAVLENKVLARFHSEKSPPLDL | Yes | Yes | No | No | Yes | Yes
4 | Br029173: GH3 protein, Bra029173 (protein, listed as Brassica rapa) MSMWADLSDKLDEKVLEDLTSNVKQMQDDVLKEILTLNANTEYLRPFLHGSSDKELFKKNVPVTTYDDVKLFIDRVANGEPFDVISGKPVTGFSLSSGTSGGKRKMFPCNKKYLENLNFIYCYRSLVISKHFDGLEHGKGMVFNFCVPEQTTPSGLPVSAATTLFFKSDYFKNRPSYWHWSFTSPDEVILCLDNKQSLYCHLLCGIVLRDEVVKVGTAFVSTLLRVITFLEKHWKEICTNIRYGHLSEWITDISCRDSVSKILGEPNPELADLIENECNQKSWEGIIQRLWPKTKFIESIATGQMAQHIPTLEFYSNKLPLISSSYVSSETMFGININPLCKPQDVSYTFMPHFSYFEFLLVDAGDEVEIVDLVDVKLGCHYETLVTNHSGLHRYKMGDIVQVTGFYNNAPQFRFARRGNLVLSVHMEITTDQALLNAVTHAKMVLESSNLMLMDFTGYADISTTPGHYVLYWELKGKYSNDIAKIDDKVLVECCYVVEESLDNFYKEYRKNGSIGALEIRVVQQGTFDSLMEFFISQGASSTQYKTPICIKSTEAIAILERKVRARFFTDKSLSLKFSS | Yes | Yes | No | No | Yes | Yes
5 | Br008836: GH3 protein, Bra008836 (protein, listed as Brassica rapa) MKPISNNDETWDATLKDLTSNVKEIQDNVLEEIITPNLKTEYLQRFNMDRFDKKLFKKNVPVVSYEDIKPDIDRVVNGESSDVISARPITGFLLSSGTSGGAQKMMPWNNKYLDNLTFAYDLRMHVITKHVKGLEEGKGMMFLFTKQETKTPSGLLARVATSSYFKSDYFTNRPSNWYYSYTSPDEVILCSNNTQSLYCHLLCGLLQRDEVVRMGSIFASVMVRAIKFLETYWEELCSNIRSGRLSEWITDLGCRSSVSLVLGGPRPDLADTIETICNQSSWKGIVTRIWPNTKYIETVVTGSMGQYVPTLNYYCSDLPLVSTTYGSSETTFGINVDPLCKPEDVSYAFMPNMSYFEFITMDGEKRDVVDLHDVKIGCTYEPVVTNFAGLYRMRVGDVLLVTGFYNNAPQFRFVRRENVVLSIDSDKTNEEDLFKAVSQAKLVLDSSDLFLEDFTSYADTSTFPGHYVIYVEVKAKGGNNHLELNEEVFSKCCSVMEDSLDNVYKRCRFKDGSVGPLEIRVVDKGTFESLMDFFINQGASTGQYKTPRCIKSGKALELMEDRVVAKFFSS | Yes | Yes | No | No | Yes | Yes

Reference: patent publication US20150351390A1, “COMPOSITIONS AND METHODS FOR AUXIN-ANALOG CONJUGATION” (PIONEER HI-BRED INTERNATIONAL, INC., priority 2012, published 2015)
